According to the Human Domainome abundance scans (Beltran et al. 2025):
± gives the uncertainty stated by the source.

B1: Nucleosome-remodeling factor subunit BPTF, residues 2862 to 2918; numbered along this chain, Q12830 (parent)
chain: TKKDTKLYCICKTPYDESKFYIGCDRCQNWYHGRCVGILQSEAELIDEYVCPQCQST

Variants of: B1
Test: abundance fitness (aPCA) (normalised: wild type 0, dead -1); higher = more abundant; growth selection in yeast, the domain comes from the species named
Conditions: Homo sapiens

In order of rising abundance fitness:
1. TKKDTKLYCICKTPYDESKFYIGCDRCQNWYHGRCVGILQSEAELCDEYVCPQCQST [I46C]  -0.483 ± 0.15
2. TKKDTKLYCICKTPYDESKFYIGCDRCQNWYHGRCVGILQSEAWLIDEYVCPQCQST [E44W]  -0.408 ± 0.11
3. TKKDTKLYCICKTPYDESKFYIGCDRCQNWYHGRCVGILQSEAELDDEYVCPQCQST [I46D]  -0.365 ± 0.15
4. TKKDTKLYCICKTPYDESKFYIGCDRCQNWYHGRCVGILQSEAEPIDEYVCPQCQST [L45P]  -0.309 ± 0.086
5. TKKDTKLYCICKTPYDESKFYIGCDRCQNWYHGRCVGILQSEAELYDEYVCPQCQST [I46Y]  -0.282 ± 0.12
6. TKKDTKLYCICKTPYDESKFYIGCDRCQNWYHGRCVGILQSEAELGDEYVCPQCQST [I46G]  -0.254 ± 0.1
7. TKKDTKLYCICKTPYDESKFYIGCDRCQNWYHGRCVGILQSEAELEDEYVCPQCQST [I46E]  -0.228 ± 0.13
8. TKKDTKLYCICKTPYDESKFYIGCDRCQNWYHGRCVGILQSEAELIIEYVCPQCQST [D47I]  -0.227 ± 0.18
9. TKKDTKLYCICKTPYDESKFYIGCDRCQNWYHGRCVGILQSEAEMIDEYVCPQCQST [L45M]  -0.219 ± 0.11
10. TKKDTKLYCICKTPYDESKFYIGCDRCQNWYHGRCVGILQSEAELIFEYVCPQCQST [D47F]  -0.219 ± 0.13
11. TKKDTKLYCICKTPYDESKFYIGCDRCQNWYHGRCVGILQSEAEWIDEYVCPQCQST [L45W]  -0.185 ± 0.1
12. TKKDTKLYCICKTPYDESKFYIGCDRCQNWYHGRCVGILQSEAEYIDEYVCPQCQST [L45Y]  -0.179 ± 0.1
13. TKKDTKLYCICKTPYDESKFYIGCDRCQNWYHGRCVGILQSEAELADEYVCPQCQST [I46A]  -0.176 ± 0.094
14. TKKDTKLYCICKTPYDESKFYIGCDRCQNWYHGRCVGILQSEATLIDEYVCPQCQST [E44T]  -0.165 ± 0.088
15. TKKDTKLYCICKTPYDESKFYIGCDRCQNWYHGRCVGILQSEAELFDEYVCPQCQST [I46F]  -0.163 ± 0.098
16. TKKDTKLYCICKTPYDESKFYIGCDRCQNWYHGRCVGILQSEAELWDEYVCPQCQST [I46W]  -0.154 ± 0.095
17. TKKDTKLYCICKTPYDESKFYIGCDRCQNWYHGRCVGILQSEAEIIDEYVCPQCQST [L45I]  -0.128 ± 0.096
18. TKKDTKLYCICKTPYDESKFYIGCDRCQNWYHGRCVGILQSEAVLIDEYVCPQCQST [E44V]  -0.123 ± 0.1
19. TKKDTKLYCICKTPYDESKFYIGCDRCQNWYHGRCVGILQSEAEAIDEYVCPQCQST [L45A]  -0.111 ± 0.081
20. TKKDTKLYCICKTPYDESKFYIGCDRCQNWYHGRCVGILQSEAELHDEYVCPQCQST [I46H]  -0.11 ± 0.17
21. TKKDTKLYCICKTPYDESKFYIGCDRCQNWYHGRCVGILQSEAELNDEYVCPQCQST [I46N]  -0.098 ± 0.14
22. TKKDTKLYCICKTPYDESKFYIGCDRCQNWYHGRCVGILQSEAPLIDEYVCPQCQST [E44P]  -0.097 ± 0.094
23. TKKDTKLYCICKTPYDESKFYIGCDRCQNWYHGRCVGILQSEAELSDEYVCPQCQST [I46S]  -0.095 ± 0.074
24. TKKDTKLYCICKTPYDESKFYIGCDRCQNWYHGRCVGILQSEAQLIDEYVCPQCQST [E44Q]  -0.086 ± 0.1
25. TKKDTKLYCICKTPYDESKFYIGCDRCQNWYHGRCVGILQSEAESIDEYVCPQCQST [L45S]  -0.075 ± 0.077
26. TKKDTKLYCICKTPYDESKFYIGCDRCQNWYHGRCVGILQSEAELVDEYVCPQCQST [I46V]  -0.073 ± 0.091
27. TKKDTKLYCICKTPYDESKFYIGCDRCQNWYHGRCVGILQSEAELQDEYVCPQCQST [I46Q]  -0.058 ± 0.095
28. TKKDTKLYCICKTPYDESKFYIGCDRCQNWYHGRCVGILQSEAEGIDEYVCPQCQST [L45G]  -0.053 ± 0.076
29. TKKDTKLYCICKTPYDESKFYIGCDRCQNWYHGRCVGILQSEASLIDEYVCPQCQST [E44S]  -0.048 ± 0.077
30. TKKDTKLYCICKTPYDESKFYIGCDRCQNWYHGRCVGILQSEAELRDEYVCPQCQST [I46R]  -0.045 ± 0.072
31. TKKDTKLYCICKTPYDESKFYIGCDRCQNWYHGRCVGILQSEARLIDEYVCPQCQST [E44R]  -0.045 ± 0.083
32. TKKDTKLYCICKTPYDESKFYIGCDRCQNWYHGRCVGILQSEAELICEYVCPQCQST [D47C]  -0.043 ± 0.15
33. TKKDTKLYCICKTPYDESKFYIGCDRCQNWYHGRCVGILQSEAEDIDEYVCPQCQST [L45D]  -0.04 ± 0.11
34. TKKDTKLYCICKTPYDESKFYIGCDRCQNWYHGRCVGILQSEAELMDEYVCPQCQST [I46M]  -0.037 ± 0.1
35. TKKDTKLYCICKTPYDESKFYIGCDRCQNWYHGRCVGILQSEAELPDEYVCPQCQST [I46P]  -0.03 ± 0.077
36. TKKDTKLYCICKTPYDESKFYIGCDRCQNWYHGRCVGILQSEAETIDEYVCPQCQST [L45T]  -0.03 ± 0.099
37. TKKDTKLYCICKTPYDESKFYIGCDRCQNWYHGRCVGILQSEAELLDEYVCPQCQST [I46L]  -0.027 ± 0.07
38. TKKDTKLYCICKTPYDESKFYIGCDRCQNWYHGRCVGILQSEAEKIDEYVCPQCQST [L45K]  -0.018 ± 0.11
39. TKKDTKLYCICKTPYDESKFYIGCDRCQNWYHGRCVGILQSEAENIDEYVCPQCQST [L45N]  -0.017 ± 0.1
40. TKKDTKLYCICKTPYDESKFYIGCDRCQNWYHGRCVGILQSEAEVIDEYVCPQCQST [L45V]  -0.001 ± 0.08
41. TKKDTKLYCICKTPYDESKFYIGCDRCQNWYHGRCVGILQSEAELTDEYVCPQCQST [I46T]  0 ± 0.084
42. TKKDTKLYCICKTPYDESKFYIGCDRCQNWYHGRCVGILQSEAELIAEYVCPQCQST [D47A]  0.003 ± 0.073
43. TKKDTKLYCICKTPYDESKFYIGCDRCQNWYHGRCVGILQSEAERIDEYVCPQCQST [L45R]  0.04 ± 0.07
44. TKKDTKLYCICKTPYDESKFYIGCDRCQNWYHGRCVGILQSEAELIGEYVCPQCQST [D47G]  0.054 ± 0.068
45. TKKDTKLYCICKTPYDESKFYIGCDRCQNWYHGRCVGILQSEAEHIDEYVCPQCQST [L45H]  0.101 ± 0.11
46. TKKDTKLYCICKTPYDESKFYIGCDRCQNWYHGRCVGILQSEAELIEEYVCPQCQST [D47E]  0.101 ± 0.099
47. TKKDTKLYCICKTPYDESKFYIGCDRCQNWYHGRCVGILQSEAELIHEYVCPQCQST [D47H]  0.134 ± 0.14
